Measured values published in patent USRE50313E1, “Musculoskeletal stem cell and medium for inducing differentiation of musculoskeletal stem cell” (CELLATOZ THERAPEUTICS, INC., priority 2017, dated 2025).

Test system: hMSSCs
Assay: Differentiation tendency of MSSC medium vs. CM medium
Format: cell-based, human
Settings: as compared when the CM medium was used
Experimental: The differentiation capacity of a medium (hereinafter, “CM medium”) obtained by replacing the human noggin (Life Technologies), i.e., the constitutional ingredient 1) of the seven constitutional ingredients of the MSSC medium of Example 2, with a conditioned medium (a culture supernatant obtained after culturing CF1 cells with a medium obtained by replacing DMEM/F12 in a complete medium with knockout DMEM (supplemented with 20% knockout serum replacement (Invitrogen, USA), 1 mM glutamine, 1% nonessential amino acids (Invitrogen, USA), 0.1 mM β-mercaptoethanol, 0.1% penicillin-streptomycin and 5 mg/mL bovine serum albumin)) (the remaining constitutional ingredients 2)-7) are identical) was compared with that of the MSSC medium.
Noggin is generally used to maintain the characteristics of hESCs during culturing (Chaturvedi G, Simone P D, Ain R, Soares M J, Wolfe M W. Noggin maintains pluripotency of human embryonic stem cells grown on Matrigel. Cell Prolif. 2009 August; 42(4): 425-33).

B1: noggin: human noggin, constitutional ingredient 1) of the MSSC medium, 250 ng/mL (protein, UniProt Q13253 28-232, looked up)
Noggin: QHYLHIRPAPSDNLPLVDLIEHPDPIFDPKEKDLNETLLRSLLGGHYDPGFMATSPPEDRPGGGGGAAGGAEDLAELDQLLRQRPSGAMPSEIKGLEFSEGLAQGKKQRLSKKLRRKLQMWLWSQTFCPVLYAWNDLGSRFWPRYVKVGSCFSKRSCSVPEGMVCKPSKSVHLTVLRWRCQRRGGQRCGWIPIQYPIISECKCSC
Question: For B1, which “increase of tendency for osteogenic differentiation” value is on record?
Answer: ≥ 10 times
